Test results as given in patent CN111778218A (SHANDONG KUANHEZHENG BIOTECHNOLOGY MEDICINE CO LTD, dated 2020).
Positions count from the first letter of the chain named.

B1: 噬菌体展示的单克隆抗体A9 (antibody, V domains shown)
VH: EVQLLESGGGLVQPGGSLRLSCAASGFTFSSYAMSWVRQAPGKGLEWVSGITNSGSSTSYADSVKGRFTISRDNSKNTLYLQMNSLRAEDTAVYYCAKGTDAFDYWGQGTLVTVSS
VL: DIQMTQSPSSLSASVGDRVTITCRASQSISSYLNWYQQKPGKAPKLLIYAASTLQSGVPSRFSGSGSGTDFTLTISSLQPEDFATYYCQQSNCSPATFGQGTKVEIKR
notes: also called A9抗体
B2: 噬菌体展示的单克隆抗体H9 (antibody, V domains shown)
VH: B1 VH with G50D, N53D, S54N, S56A, S59G, G99S, D101N, A102T
VL: B1 VL with L33I, A50D, T53S, S91N, N92S, C93N, A96S
notes: also called H9抗体
B3: 噬菌体展示的单克隆抗体E11 (antibody, V domains shown)
VH: B1 VH with G50S, T52D, N53S, S56Y, S57Y, G99N, T100S, A102S
VL: B1 VL with A50S, T53Y, S91Y, N92D, C93D, S94G, A96N
notes: also called E11抗体
B4: 噬菌体展示的单克隆抗体F10 (antibody, V domains shown)
VH: B1 VH with T52D, N53S, S54A, S56Y, S57Y, S59T, G99D, T100S, A102T
VL: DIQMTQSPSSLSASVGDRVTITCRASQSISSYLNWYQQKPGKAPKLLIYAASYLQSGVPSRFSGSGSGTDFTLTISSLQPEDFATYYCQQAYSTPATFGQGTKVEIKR
notes: also called F10抗体
B5: 噬菌体展示的单克隆抗体F5 (antibody, V domains shown)
VH: B1 VH with G50T, T52D, N53S, S54A, S56N, S59T, G99N, T100D, D101S, A102S
VL: B1 VL with A50S, T53W, S91Y, N92S, C93D, S94G, A96D
notes: also called F5抗体; 噬菌体展示F5抗体

The binders below were run against T1, 牛血清白蛋白BSA (牛 (bovine), UniProt P02769 25-607) (assay: phage ELISA, BSA coated at 1 μg/mL).
T1 construct: also called 牛血清蛋白
T1 sequence (P02769 25-607 limits assumed): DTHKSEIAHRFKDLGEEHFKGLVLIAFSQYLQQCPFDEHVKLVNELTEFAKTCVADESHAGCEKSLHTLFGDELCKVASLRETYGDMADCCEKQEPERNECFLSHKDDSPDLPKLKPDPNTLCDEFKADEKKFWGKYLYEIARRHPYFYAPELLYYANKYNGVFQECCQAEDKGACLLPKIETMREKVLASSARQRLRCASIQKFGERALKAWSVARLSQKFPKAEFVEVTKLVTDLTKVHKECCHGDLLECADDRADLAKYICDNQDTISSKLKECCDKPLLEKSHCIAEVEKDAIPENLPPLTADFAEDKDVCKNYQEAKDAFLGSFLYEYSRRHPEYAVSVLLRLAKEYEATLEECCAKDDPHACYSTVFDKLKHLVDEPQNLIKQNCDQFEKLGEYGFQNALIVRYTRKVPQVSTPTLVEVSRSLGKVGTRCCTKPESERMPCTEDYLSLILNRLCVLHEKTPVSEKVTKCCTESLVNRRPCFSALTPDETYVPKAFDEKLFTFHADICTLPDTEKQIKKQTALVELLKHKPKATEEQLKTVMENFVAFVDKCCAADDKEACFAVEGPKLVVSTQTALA

Does B1 bind?
Result: no binding

Does B2 bind?
Result: no binding

Does B3 bind?
Result: no binding

Does B4 bind?
Result: no binding

Does B5 bind?
Result: no binding
